T1: MBP-tagged FoxP3^RBR-forkhead (mouse, UniProt Q99JB6 284-423)
T1 sequence (looked up): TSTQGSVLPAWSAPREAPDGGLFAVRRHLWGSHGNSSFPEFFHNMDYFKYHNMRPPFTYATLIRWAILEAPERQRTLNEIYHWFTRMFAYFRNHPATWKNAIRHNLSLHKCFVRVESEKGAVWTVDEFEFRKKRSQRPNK


Columns and labels:
[1] = target: T1, MBP-tagged FoxP3^RBR-forkhead; assay: pull-down
SEC-MALS = target: the molecule itself; assay: SEC-MALS
SEC = target: the molecule itself; assay: SEC

Binder | stoichiometry N (SEC-MALS) | other results
GST-tagged Runx1 (residue 371–451) (domain or fragment, mouse, UniProt Q03347 371-451, looked up) GSPSYHLYYGASAGSYQFSMVGGERSPPRILPPCTNASTGAALLNPSLPSQSDVVETEGSHSNSPTNMPPARLEEAVWRPY |  | binding result [1]: binds
NusA-tagged FoxP3^ΔN (domain or fragment, mouse, UniProt Q99JB6 188-423, looked up) GSYPLLANGVCKWPGCEKVFEEPEEFLKHCQADHLLDEKGKAQCLLQREVVQSLEQQLELEKEKLGAMQAHLAGKMALAKAPSVASMDKSSCCIVATSTQGSVLPAWSAPREAPDGGLFAVRRHLWGSHGNSSFPEFFHNMDYFKYHNMRPPFTYATLIRWAILEAPERQRTLNEIYHWFTRMFAYFRNHPATWKNAIRHNLSLHKCFVRVESEKGAVWTVDEFEFRKKRSQRPNK | 2 | 
NusA-tagged FoxP3^RBR-forkhead R337Q (domain or fragment, mouse, UniProt Q99JB6 284-423, looked up) TSTQGSVLPAWSAPREAPDGGLFAVRRHLWGSHGNSSFPEFFHNMDYFKYHNMQPPFTYATLIRWAILEAPERQRTLNEIYHWFTRMFAYFRNHPATWKNAIRHNLSLHKCFVRVESEKGAVWTVDEFEFRKKRSQRPNK | 2 | 
Recombinant Y373V FoxP3^RBR-forkhead (domain or fragment, mouse, UniProt Q99JB6 284-423, looked up) TSTQGSVLPAWSAPREAPDGGLFAVRRHLWGSHGNSSFPEFFHNMDYFKYHNMRPPFTYATLIRWAILEAPERQRTLNEIYHWFTRMFAVFRNHPATWKNAIRHNLSLHKCFVRVESEKGAVWTVDEFEFRKKRSQRPNK |  | stoichiometry N (SEC): 4

From paper PMC9907729 (Immunity, 2022)
